# Laboratory results published in publication PMC4933879.
# Several values for one entry are separate records, joined by “and”; a condition that tells them apart may be missing. Equal entries are not always repeated.
# What was measured:
# [1] = target: DARPin D1; assay: SPR; Proteon XPR36; DARPins immobilised through their N-terminal His-tag on Ni2+-activated tris-NTA (HTG) sensor chip, tubulin injected at five concentrations; 20 °C; buffer of the fluorescence experiments with 20 μM EGTA and 0.005% Tween 20; Langmuir fit; for D1 also KD from the plateau values
# [2] = target: TM-3 1-149; assay: as above
# [3] = target: subtilisin-digested acrylodan-labeled TM-3 (C-cap-truncated TM-3); assay: fluorescence kinetics (stopped-flow and spectrofluorometer); koff: chase of acrylodan-labeled DARPin from tubulin by excess unlabeled DARPin (stopped-flow for D1, spectrofluorometer for high affinity DARPins), mono-exponential fit; kon: at least 5-fold excess of tubulin added to 50 nM labeled DARPin in a stopped-flow system, pseudo-first-order, slope of kobs against tubulin concentration
# [4] = target: acrylodan-labeled A-C2 (Q26C mutant); assay: as above
# [5] = target: acrylodan-labeled D1 (Q26C mutant); assay: as above
# [6] = target: acrylodan-labeled TM-3 variant (Q26C mutant); assay: as above
# [7] = target: subtilisin-digested acrylodan-labeled TM-3 (C-cap-truncated TM-3); assay: other fluorescence titration; fixed acrylodan-labeled DARPin (100 nM D1 or 15 nM high affinity DARPins) titrated with tubulin; 20 mM K-phosphate pH 7.2, 100 mM KCl, 1 mM MgCl2, 0.5 mM EGTA, 10 μM GDP, 20 °C; 1:1 quadratic fit
# [8] = target: acrylodan-labeled A-C2 (Q26C mutant); assay: as above
# [9] = target: acrylodan-labeled D1 (Q26C mutant); assay: as above
# [10] = target: acrylodan-labeled TM-3 variant (Q26C mutant); assay: as above
# Chain of DARPin D1 (main, as listed by the source): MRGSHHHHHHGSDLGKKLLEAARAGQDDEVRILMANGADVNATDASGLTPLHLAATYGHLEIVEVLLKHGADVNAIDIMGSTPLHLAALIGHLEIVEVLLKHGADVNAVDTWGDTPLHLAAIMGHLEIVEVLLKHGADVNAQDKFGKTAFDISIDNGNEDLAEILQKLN
# Chain of TM-3 1-149 (main, as listed by the source): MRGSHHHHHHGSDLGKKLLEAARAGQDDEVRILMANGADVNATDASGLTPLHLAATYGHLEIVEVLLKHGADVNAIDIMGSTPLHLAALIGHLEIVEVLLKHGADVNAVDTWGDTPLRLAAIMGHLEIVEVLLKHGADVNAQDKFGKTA
substance,measurement,setting,value
αβ tubulin heterodimer (tubulin) (complex),Kd,[1],300 nM and 275 nM
same,koff,[1],0.22 s⁻¹
same,kon,[1],800000 M⁻¹ s⁻¹
same,Kd,[2],1.6 nM
same,koff,[2],0.0027 s⁻¹
same,kon,[2],1.7e+06 M⁻¹ s⁻¹
same,Kd,[3],0.172 nM
same,koff,[3],0.0046 s⁻¹
same,kon,[3],2.67e+07 M⁻¹ s⁻¹
same,Kd,[4],0.444 nM
same,koff,[4],0.0071 s⁻¹
same,kon,[4],1.6e+07 M⁻¹ s⁻¹
same,Kd,[5],115 nM
same,koff,[5],1.49 s⁻¹
same,kon,[5],1.3e+07 M⁻¹ s⁻¹
same,Kd,[6],0.269 nM
same,koff,[6],0.0049 s⁻¹
same,kon,[6],1.82e+07 M⁻¹ s⁻¹
same,Kd,[7],1.03 nM
same,Kd,[8],0.82 nM
same,Kd,[9],127 nM
same,Kd,[10],0.9 nM
